Experimental data reported in PMC4535689.
One block for each molecule: values may come before it.

Experiments:
[1] = molecular target: mouse NGL-1 extracellular fragment (LRR and Ig domains) (mouse); experiment: AUC
[2] = molecular target: T1, human NGL-2 extracellular fragment (LRR and Ig domains) (human); experiment: AUC
T1 sequence (Q9HBW1 whole entry, looked up): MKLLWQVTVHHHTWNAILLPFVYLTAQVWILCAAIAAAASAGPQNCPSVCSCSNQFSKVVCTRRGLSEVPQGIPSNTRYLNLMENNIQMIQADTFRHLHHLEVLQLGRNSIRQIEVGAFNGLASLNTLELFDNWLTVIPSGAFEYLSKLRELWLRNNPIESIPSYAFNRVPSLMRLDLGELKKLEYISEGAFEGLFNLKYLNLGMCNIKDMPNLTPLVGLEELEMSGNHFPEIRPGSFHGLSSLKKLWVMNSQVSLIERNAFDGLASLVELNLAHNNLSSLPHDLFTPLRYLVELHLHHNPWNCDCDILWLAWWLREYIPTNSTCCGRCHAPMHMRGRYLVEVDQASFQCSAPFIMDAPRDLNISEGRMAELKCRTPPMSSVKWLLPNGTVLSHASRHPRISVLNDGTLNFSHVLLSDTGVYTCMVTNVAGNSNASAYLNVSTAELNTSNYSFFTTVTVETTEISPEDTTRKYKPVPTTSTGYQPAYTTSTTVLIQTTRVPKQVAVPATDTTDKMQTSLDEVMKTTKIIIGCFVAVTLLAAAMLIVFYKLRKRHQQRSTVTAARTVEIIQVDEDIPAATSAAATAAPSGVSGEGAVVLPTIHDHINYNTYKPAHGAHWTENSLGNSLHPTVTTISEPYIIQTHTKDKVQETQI

Kd [1]: 505 nM
stoichiometry N [1]: 1
Molecule: mouse netrin G1 isoform G1f (LN and LE1 domains) (natural protein)

Kd [1]: 1490 nM
Molecule: mouse netrin G1 isoform G1j (LN domain only) (natural protein)

Kd [2]: 264 nM
stoichiometry N [2]: 1
B1: human netrin G2, full ectodomain (LN domain, LE1-3 and C'), lacking only the GPI anchor site (domain or fragment)
chain: DYDICKSWVTTDEGPTWEFYACQPKVMRLKDYVKVKVEPSGITCGDPPERFCSHENPYLCSNECDASNPDLAHPPRLMFDKEEEGLATYWQSITWSRYPSPLEANITLSWNKTVELTDDVVMTFEYGRPTVMVLEKSLDNGRTWQPYQFYAEDCMEAFGMSARRARDMSSSSAHRVLCTEEYSRWAGSKKEKHVRFEVRDRFAIFAGPDLRNMDNLYTRLESAKGLKEFFTLTDLRMRLLRPALGGTYVQRENLYKYFYAISNIEVIGRCKCNLHANLCSMREGSLQCECEHNTTGPDCGKCKKNFRTRSWRAGSYLPLPHGSPNACATAGSFGNCECYGHSNRCSYIDFLNVVTCVSCKHNTRGQHCQHCRLGYYRNGSAELDDENVCIECNCNQIGSVHDRCNETGFCECREGAAGPKCDDCLPTHYWRQGCYPNVCDDDQLLCQNGGTCLQNQRCACPRGYTGVRCEQPRCDPADDDGGLDCDR

Kd [2]: 180 nM
B2: human sNetrin G2 ("short" netrin G2, LN and LE1 domains only) (domain or fragment)
chain: DYDICKSWVTTDEGPTWEFYACQPKVMRLKDYVKVKVEPSGITCGDPPERFCSHENPYLCSNECDASNPDLAHPPRLMFDKEEEGLATYWQSITWSRYPSPLEANITLSWNKTVELTDDVVMTFEYGRPTVMVLEKSLDNGRTWQPYQFYAEDCMEAFGMSARRARDMSSSSAHRVLCTEEYSRWAGSKKEKHVRFEVRDRFAIFAGPDLRNMDNLYTRLESAKGLKEFFTLTDLRMRLLRPALGGTYVQRENLYKYFYAISNIEVIGRCKCNLHANLCSMREGSLQCECEHNTTGPDCGKCKKNFRTRSWRAGSYLPLPHGSPNACATAGS
modifications: N-linked glycans at Asn105 and Asn111 (seen in the crystal structure)
